Assay results taken from paper PMC8981238, “C-type cytochrome-initiated reduction of bacterial lytic polysaccharide monooxygenases” (Biochemical Journal, 2021).

Assays:
[1] = target: CfAA10, LPMO from Cellulomonas fimi (Cellulomonas fimi)
[2] = target: CjAA10BΔCBM, cellulose active LPMO CjAA10B from Cellvibrio japonicus lacking its CBM (Cellvibrio japonicus)
[3] = substrate: O=C1O[C@H]([C@@H](O)CO)C(O)=C1O; assay: Amplex Red / horseradish peroxidase coupled H2O2 production, initial rates; assay type: biochemical, Cellvibrio japonicus; conditions: reductant varied, no polysaccharide, O2 from air, 50 mM sodium phosphate pH 6.0, room temperature, 2 µM LPMO
Excerpt: Amplex Red / horseradish peroxidase coupled H2O2 production, initial rates on CjAA10BΔCBM | concentration of CjX183, or ascorbate, was varied around calculated KM values

B1: CjX183, c-type cytochrome X183 domain of Cbp2D from Cellvibrio japonicus (domain or fragment)
chain: GYLVGDATRGANLWNTQTCVACHGVDGERNASGTPALTPLNPNRDLYRHSRDTQDRALRDFISMWMPQGNEGSCTGQCAADIEAFIRTW
modifications: heme c covalently linked via thioether linkages to Cys19 and Cys22 (numbering of the structure); disulfide bond between cysteines 74 and 78
rate of oxidation of reduced CjX183 (10 µM, decay of A552, single exponential) with 0 to 50 µM CfAA10; rate rose linearly [1]: 1.13 min⁻¹
rate of oxidation of reduced CjX183 (10 µM, decay of A552, single exponential) with 0 to 50 µM CjAA10BΔCBM; rate rose linearly [2]: 0.56 min⁻¹

B2: CjAA10BΔCBM (Cellvibrio japonicus Ueda107) (protein)
chain: HGFVDSPGARNYFCGAVTKPDHVMNGVARYPECAGAFANDFNGGYSYMSVLTHHQGRKVLGPVARNVCGFDSETWNGGKTPWDNAINWPVNNINSGTLTFSWDISNGPHFDDTSDFRYWITKPGFVYQVGRELTWADFEDQPFCDLAYNDDNPGAYPNVRADKPNTHFHTTCTVPARTGRHVIYAEWGREPPTYERFHGCIDVQIGGGSNSSVPVSSSSSSRSSSSSSLAPSSSSRSSSSSSSVSSSRSSSSSVVSSSSSSRPASSSSSSTGGS
notes: AA10 catalytic part, C-terminal CBM deleted, from pET22-CjAA10B
Km [3]: 5.8 ± 0.3 µM
